# Measured values taken from patent publication US6989256 (UNIVERSITY OF MEDICINE AND DENTISTRY OF NEW JERSEY, dated 2006).
# T1: FLAG epitope-tagged Mtt1p (yeast (S. cerevisiae), UniProt P32644 1-1121, limits assumed)
# T1 construct: Used as a yeast cytoplasmic extract, not as purified protein; also called Flag-Mtt1p; Modulator of Translation Termination
# T1 sequence (looked up): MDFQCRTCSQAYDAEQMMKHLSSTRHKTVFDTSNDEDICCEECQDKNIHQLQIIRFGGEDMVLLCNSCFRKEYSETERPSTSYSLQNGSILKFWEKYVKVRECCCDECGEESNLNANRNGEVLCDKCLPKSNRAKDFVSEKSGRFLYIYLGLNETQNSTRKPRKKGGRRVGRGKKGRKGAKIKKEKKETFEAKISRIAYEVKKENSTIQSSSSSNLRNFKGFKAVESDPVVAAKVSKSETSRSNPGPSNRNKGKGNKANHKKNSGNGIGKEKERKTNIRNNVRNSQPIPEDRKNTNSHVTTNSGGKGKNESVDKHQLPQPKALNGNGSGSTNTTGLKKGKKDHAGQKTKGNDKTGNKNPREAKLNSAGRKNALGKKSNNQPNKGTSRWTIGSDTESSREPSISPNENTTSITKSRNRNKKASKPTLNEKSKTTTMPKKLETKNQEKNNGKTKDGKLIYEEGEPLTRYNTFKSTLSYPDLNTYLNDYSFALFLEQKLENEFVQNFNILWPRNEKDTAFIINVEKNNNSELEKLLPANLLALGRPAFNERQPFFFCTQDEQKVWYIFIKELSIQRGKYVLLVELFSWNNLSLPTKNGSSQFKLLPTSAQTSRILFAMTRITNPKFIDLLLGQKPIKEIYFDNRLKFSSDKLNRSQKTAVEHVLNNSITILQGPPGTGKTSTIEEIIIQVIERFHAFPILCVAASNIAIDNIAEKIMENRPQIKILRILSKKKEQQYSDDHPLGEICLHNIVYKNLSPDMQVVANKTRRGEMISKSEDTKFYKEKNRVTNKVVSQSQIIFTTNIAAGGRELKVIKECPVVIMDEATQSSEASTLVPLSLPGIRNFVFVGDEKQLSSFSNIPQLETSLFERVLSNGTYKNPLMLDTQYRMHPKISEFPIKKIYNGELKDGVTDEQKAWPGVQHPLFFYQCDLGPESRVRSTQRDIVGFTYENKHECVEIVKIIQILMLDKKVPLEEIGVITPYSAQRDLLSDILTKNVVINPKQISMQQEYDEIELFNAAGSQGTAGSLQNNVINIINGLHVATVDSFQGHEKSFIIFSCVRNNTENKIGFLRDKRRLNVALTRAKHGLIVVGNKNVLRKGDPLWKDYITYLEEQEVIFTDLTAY
# Target: T1, FLAG epitope-tagged Mtt1p
# Experiment: GST pull-down from yeast cytoplasmic extract, anti-FLAG immunoblot
# Experimental: Total RNA was prepared and subjected to RNA blotting analysis, using a probe for CYH2 mRNA. Figure 4: FIG. 4 Mtt1 interacts withe eRF3. Cytoplasmic extracts from a yeast strain BJ3505 transformed with either pG-1 (vector) or pG-1 FLAGMTT1 (Flag-Mtt1p) were prepared in IBTB and incubated with 30 μl GST, GST-eRF1. GST-eRF3, GST-eRF3NM or GST-eRF3C sepharose-protein complexes. The sepharose-protein complexes were washed 2 times in IBTB (see materials and methods), resuspended in SDS-PAGE loading buffer, separated on an 8% SDS-PAGE gel and immunoblotted using anti-FLAG antibody.
# Since deleting the MTT1 gene also promotes nonsense suppression of the tyr7-1 and leu2-2 alleles, Mtt1p also interacts with the peptidyl release factors. To test this, eRF1 and eRF3 were individually expressed in *E. coli* as glutathione-S-transferase (GST) fusion proteins and purified using glutathione sepharose beads. The purified GST-RF (release factor) fusion proteins associated with the glutathione sepharose beads were added to a yeast cytoplasmic extract containing a FLAG epitope-tagged Mtt1p (see Experimental Procedures). Following incubation, the GST-RFs and associated proteins were purified by affinity chromatography and subjected to SDS-PAGE. Immunoblotting was performed and the presence of the Flag-Mtt1p was assayed using an antibody against the FLAG epitope.
binder,measurement,value
"GST-eRF1 (other, yeast (S. cerevisiae), UniProt P12385 1-437, looked up, also called GST-RF1; GST-RF; not shown: glutathione-S-transferase (GST) from vector pGEX2T) MDNEVEKNIEIWKVKKLVQSLEKARGNGTSMISLVIPPKGQIPLYQKMLTDEYGTASNIKSRVNRLSVLSAITSTQQKLKLYNTLPKNGLVLYCGDIITEDGKEKKVTFDIEPYKPINTSLYLCDNKFHTEVLSELLQADDKFGFIVMDGQGTLFGSVSGNTRTVLHKFTVDLPKKHGRGGQSALRFARLREEKRHNYVRKVAEVAVQNFITNDKVNVKGLILAGSADFKTDLAKSELFDPRLACKVISIVDVSYGGENGFNQAIELSAEALANVKYVQEKKLLEAYFDEISQDTGKFCYGIDDTLKALDLGAVEKLIVFENLETIRYTFKDAEDNEVIKFAEPEAKDKSFAIDKATGQEMDVVSEEPLIEWLAANYKNFGATLEFITDKSSEGAQFVTGFGGIGAMLRYKVNFEQLVDESEDEYYDEDEGSDYDFI",binding result,no binding
